Experimental data as given in patent US20230183336A1 (MODMAB THERAPEUTICS, published 2023).

T1: recombinant mouse LRP5-His chimera (mouse, UniProt Q91VN0 31-1383)
T1 construct: extracellular domain; also called ECD of mouse LRP5; not shown: His tag
T1 sequence (looked up): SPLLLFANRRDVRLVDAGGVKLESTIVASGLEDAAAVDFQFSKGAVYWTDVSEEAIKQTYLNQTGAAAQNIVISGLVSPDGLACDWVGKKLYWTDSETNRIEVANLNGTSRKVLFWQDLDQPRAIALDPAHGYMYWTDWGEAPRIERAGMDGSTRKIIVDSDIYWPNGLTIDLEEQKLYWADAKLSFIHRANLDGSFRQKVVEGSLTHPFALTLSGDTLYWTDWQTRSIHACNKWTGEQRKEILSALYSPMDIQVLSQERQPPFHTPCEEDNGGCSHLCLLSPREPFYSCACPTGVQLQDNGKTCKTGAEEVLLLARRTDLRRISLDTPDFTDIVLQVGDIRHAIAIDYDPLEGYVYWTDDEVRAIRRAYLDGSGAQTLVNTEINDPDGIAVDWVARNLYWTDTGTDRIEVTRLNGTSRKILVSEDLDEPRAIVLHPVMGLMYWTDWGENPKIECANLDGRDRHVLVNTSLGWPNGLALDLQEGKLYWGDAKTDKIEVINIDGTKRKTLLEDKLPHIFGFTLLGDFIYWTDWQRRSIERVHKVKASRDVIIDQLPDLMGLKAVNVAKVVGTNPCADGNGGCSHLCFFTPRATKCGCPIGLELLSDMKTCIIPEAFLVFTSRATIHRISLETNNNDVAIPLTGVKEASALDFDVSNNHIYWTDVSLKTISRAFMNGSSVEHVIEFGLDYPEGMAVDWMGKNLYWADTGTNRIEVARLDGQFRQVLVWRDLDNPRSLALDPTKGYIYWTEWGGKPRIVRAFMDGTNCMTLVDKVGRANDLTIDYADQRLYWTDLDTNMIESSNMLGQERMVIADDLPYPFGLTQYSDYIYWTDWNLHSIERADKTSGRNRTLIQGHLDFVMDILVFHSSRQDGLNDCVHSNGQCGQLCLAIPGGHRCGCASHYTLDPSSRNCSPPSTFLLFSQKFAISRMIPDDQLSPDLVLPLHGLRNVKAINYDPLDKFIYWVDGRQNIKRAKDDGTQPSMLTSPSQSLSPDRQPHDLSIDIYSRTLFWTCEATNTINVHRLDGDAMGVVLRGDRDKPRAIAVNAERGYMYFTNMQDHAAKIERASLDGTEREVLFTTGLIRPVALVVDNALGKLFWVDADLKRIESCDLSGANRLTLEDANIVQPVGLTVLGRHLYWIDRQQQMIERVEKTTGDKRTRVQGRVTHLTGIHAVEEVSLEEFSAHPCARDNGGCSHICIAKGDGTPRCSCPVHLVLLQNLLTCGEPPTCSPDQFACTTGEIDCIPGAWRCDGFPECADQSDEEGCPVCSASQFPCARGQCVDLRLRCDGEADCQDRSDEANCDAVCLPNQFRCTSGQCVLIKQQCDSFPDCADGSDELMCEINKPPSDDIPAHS

T2: recombinant human LRP6-Fc chimera (human, UniProt O75581 20-1370)
T2 construct: extracellular domain; also called ECD of human LRP6; not shown: Fc part of the chimera
T2 sequence (looked up): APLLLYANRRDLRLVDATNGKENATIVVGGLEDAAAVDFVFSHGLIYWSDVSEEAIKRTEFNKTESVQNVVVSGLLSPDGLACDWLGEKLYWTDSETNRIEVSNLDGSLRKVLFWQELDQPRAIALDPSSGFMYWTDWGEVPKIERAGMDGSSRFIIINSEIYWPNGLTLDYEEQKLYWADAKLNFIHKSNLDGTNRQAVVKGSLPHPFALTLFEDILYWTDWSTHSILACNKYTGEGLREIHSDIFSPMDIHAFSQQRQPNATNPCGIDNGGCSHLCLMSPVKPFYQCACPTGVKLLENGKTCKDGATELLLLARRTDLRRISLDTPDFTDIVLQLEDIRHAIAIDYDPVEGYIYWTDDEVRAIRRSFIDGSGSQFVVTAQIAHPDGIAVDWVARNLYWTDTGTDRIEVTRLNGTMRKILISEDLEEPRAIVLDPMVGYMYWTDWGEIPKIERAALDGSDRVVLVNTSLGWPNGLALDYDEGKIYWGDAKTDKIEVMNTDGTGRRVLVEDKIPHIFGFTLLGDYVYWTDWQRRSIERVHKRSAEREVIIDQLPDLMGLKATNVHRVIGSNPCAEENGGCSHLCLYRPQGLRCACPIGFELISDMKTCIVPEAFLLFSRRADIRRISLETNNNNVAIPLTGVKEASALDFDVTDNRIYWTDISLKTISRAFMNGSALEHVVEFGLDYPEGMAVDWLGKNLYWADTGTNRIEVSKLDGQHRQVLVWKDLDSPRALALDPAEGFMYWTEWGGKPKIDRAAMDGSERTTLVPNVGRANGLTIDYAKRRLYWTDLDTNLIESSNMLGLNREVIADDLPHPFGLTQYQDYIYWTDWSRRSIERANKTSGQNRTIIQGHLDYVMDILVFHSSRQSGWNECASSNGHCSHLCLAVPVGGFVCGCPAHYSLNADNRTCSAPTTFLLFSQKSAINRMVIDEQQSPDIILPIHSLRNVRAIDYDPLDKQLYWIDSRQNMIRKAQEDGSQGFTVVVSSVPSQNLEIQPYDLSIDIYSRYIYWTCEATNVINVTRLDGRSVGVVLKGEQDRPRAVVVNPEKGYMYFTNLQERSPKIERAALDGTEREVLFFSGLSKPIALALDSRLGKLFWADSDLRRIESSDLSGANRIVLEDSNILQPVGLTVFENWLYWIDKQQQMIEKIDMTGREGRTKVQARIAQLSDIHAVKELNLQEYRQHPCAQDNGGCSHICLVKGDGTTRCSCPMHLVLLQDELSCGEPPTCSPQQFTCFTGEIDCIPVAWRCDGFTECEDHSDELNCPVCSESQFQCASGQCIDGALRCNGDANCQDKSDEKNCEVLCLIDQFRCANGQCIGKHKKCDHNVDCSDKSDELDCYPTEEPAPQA

B1: LRP5-H3 (antibody, V domains shown)
VH: EVQLVESGGGLVQPGGSLRLSCAASGFNLYYYYIHWVRQAPGKGLEWVASISPYYGYTSYADSVKGRFTISADTSKNTAYLQMNSLRAEDTAVYYCARSGYGWYAMDYWGQGTLVTVSS
VL: DIQMTQSPSSLSASVGDRVTITCRASQSVSSAVAWYQQKPGKAPKLLIYSASSLYSGVPSRFSGSRSGTDFTLTISSLQPEDFATYYCQQYWFLITFGQGTKVEIKR
notes: Fab-phage in the screen
B2: LRP5-G11 (antibody, V domains shown)
VH: EVQLVESGGGLVQPGGSLRLSCAASGFNISYSYIHWVRQAPGKGLEWVASIYPSYGYTYYADSVKGRFTISADTSKNTAYLQMNSLRAEDTAVYYCARAAPYYGYYYSYAMDYWGQGTLVTVSS
VL: DIQMTQSPSSLSASVGDRVTITCRASQSVSSAVAWYQQKPGKAPKLLIYSASSLYSGVPSRFSGSRSGTDFTLTISSLQPEDFATYYCQQGVSLITFGQGTKVEIKR
notes: Fab-phage in the screen
B3: LRP5-D9 (antibody, V domains shown)
VH: EVQLVESGGGLVQPGGSLRLSCAASGFNISYSYIHWVRQAPGKGLEWVASIYSSYGYTYYADSVKGRFTISADTSKNTAYLQMNSLRAEDTAVYYCARHYSYFFYAMDYWGQGTLVTVSS
VL: DIQMTQSPSSLSASVGDRVTITCRASQSVSSAVAWYQQKPGKAPKLLIYSASSLYSGVPSRFSGSRSGTDFTLTISSLQPEDFATYYCQQASYSPITFGQGTKVEIKR
notes: Fab-phage in the screen
B4: LRP5-H9 (antibody, V domains shown)
VH: EVQLVESGGGLVQPGGSLRLSCAASGFNIYSYYIHWVRQAPGKGLEWVASIYSYYGYTYYADSVKGRFTISADTSKNTAYLQMNSLRAEDTAVYYCARSYPAMDYWGQGTLVTVSS
VL: DIQMTQSPSSLSASVGDRVTITCRASQSVSSAVAWYQQKPGKAPKLLIYSASSLYSGVPSRFSGSRSGTDFTLTISSLQPEDFATYYCQQSSYSPITFGQGTKVEIKR
notes: Fab-phage in the screen
B5: LRP5-G9 (antibody, V domains shown)
VH: EVQLVESGGGLVQPGGSLRLSCAASGFNISYSYIHWVRQAPGKGLEWVASIYSSYGYTYYADSVKGRFTISADTSKNTAYLQMNSLRAEDTAVYYCARWGAYHSSGYGMDYWGQGTLVTVSS
VL: DIQMTQSPSSLSASVGDRVTITCRASQSVSSAVAWYQQKPGKAPKLLIYSASSLYSGVPSRFSGSRSGTDFTLTISSLQPEDFATYYCQQSSSSPITFGQGTKVEIKR
notes: Fab-phage in the screen
B6: LRP5-A7 (antibody, V domains shown)
VH: EVQLVESGGGLVQPGGSLRLSCAASGFNLSYSSMHWVRQAPGKGLEWVASIYPYYGYTYYADSVKGRFTISADTSKNTAYLQMNSLRAEDTAVYYCARHGAMDYWGQGTLVTVSS
VL: DIQMTQSPSSLSASVGDRVTITCRASQSVSSAVAWYQQKPGKAPKLLIYSASSLYSGVPSRFSGSRSGTDFTLTISSLQPEDFATYYCQQAWGWGLFTFGQGTKVEIKR
notes: Fab-phage in the screen; also called LRP5-47
B7: LRP5-C12 (antibody, V domains shown)
VH: EVQLVESGGGLVQPGGSLRLSCAASGFNFSSSSIHWVRQAPGKGLEWVASIYSSYGSTSYADSVKGRFTISADTSKNTAYLQMNSLRAEDTAVYYCARTVRGSKKPYFSGWAMDYWGQGTLVTVSS
VL: DIQMTQSPSSLSASVGDRVTITCRASQSVSSAVAWYQQKPGKAPKLLIYSASSLYSGVPSRFSGSRSGTDFTLTISSLQPEDFATYYCQQFSHVSLITFGQGTKVEIKR
notes: Fab-phage in the screen
B8: LRP5-E5 (antibody, V domains shown)
VH: EVQLVESGGGLVQPGGSLRLSCAASGFNIYSYSIHWVRQAPGKGLEWVASIYPYSSYTSYADSVKGRFTISADTSKNTAYLQMNSLRAEDTAVYYCARYAVYFPGYYWGMDYWGQGTLVTVSS
VL: DIQMTQSPSSLSASVGDRVTITCRASQSVSSAVAWYQQKPGKAPKLLIYSASSLYSGVPSRFSGSRSGTDFTLTISSLQPEDFATYYCQQYHYYYLFTFGQGTKVEIKR
notes: Fab-phage in the screen
B9: LRP5-A9 (antibody, V domains shown)
VH: EVQLVESGGGLVQPGGSLRLSCAASGFNISSYSIHWVRQAPGKGLEWVASSSYYGYTYYADSVKGRFTISADTSKNTAYLQMNSLRAEDTAVYYCARTVRGSKKPYFSGWAMDYWGQGTLVTVSS
VL: DIQMTQSPSSLSASVGDRVTITCRASQSVSSAVAWYQQKPGKAPKLLIYSASSLYSGVPSRFSGSRSGTDFTLTISSLQPEDFATYYCQQVHYSPYSLITFGQGTKVEIKR
notes: Fab-phage in the screen

Key:
[1] = molecular target: T1, recombinant mouse LRP5-His chimera; assay: single-point ELISA, coated antigen, purified Fab or IgG1, anti-kappa-HRP
Method: FIGS. 1A and 1B show sixteen (16) anti-LRP antibodies. (A) The amino acid sequences of the complementarity determining regions (CDR) of the heavy (H) and the light (L) chains are presented. The antibodies were grouped into unique epitopes as determined by competitive ELISAs. (B) Single-point ELISAs were performed on 96-well Maxisorb immune plates coated with ECD's of mouse LRP5, mouse LRP6 and human LRP6 chimeras. The plates were incubated with the purified Fab or IgG1 at the concentrations indicated followed by incubation with horseradish peroxidase (HRP)-conjugated anti-kappa antibody. The wells were washed eight times followed by incubation with 3,3′,5,5′-tetramethylbenzidine/H₂O₂ peroxidase (TMB) substrate for 5-10 min. The reaction was stopped by adding 1M H₃PO₄ and the absorbance was measured spectrometrically at 450 nm in a microtiter plate reader. FIG. 1A discloses “SSVA” as SEQ ID NO: 34, and “SASSLYS” as SEQ ID NO: 35, as well as SEQ ID NOS 36-49, 51, 44, 2-4, 4, 5-7, 5, 4, 5, 8-10, 4, 52, 55, 11-16, 15, 15, 13, 17-20, 13, 53, 56, 21-23, 22, 24-33, 54, 57, respectively, in order of columns.
(§1) The full length IgG1s and the antibody fragments (Fabs) were purified and a single-point ELISA was done to determine the specificity of the antibodies. […] A multipoint competitive ELISA was used to determine the relative affinities of the antibodies to the recombinant antigen.

[2] = molecular target: T2, recombinant human LRP6-Fc chimera; assay: multipoint competitive ELISA, IgG1; varied competitor printed as recombinant human LRP6-Fc chimera, while paragraph 283 says 'the recombinant antigen'
Source text: as §1
Table 3 reports the IC50 of LRP5 antibodies as determined by competitive ELISA. The log of the recombinant human LRP6-Fc chimera concentration (x-axis) was plotted against the OD450 reading of the antibody (y-axis). The IC50 was determined by non-linear regression analysis.

Binder | binding result [1] | IC50 [2]
B1 | binds | 
B2 |  | 25.1 nM
B3 | binds | 25.1 nM
B4 | binds | 37.5 nM
B5 |  | 26.4 nM
B6 | binds | 4.68 nM
B7 | binds | 
B8 | binds | 
B9 | binds | 
